In patent US20140057311A1, “Device For High Throughput Investigations Of Multi-Cellular Interactions” (priority 2010, published 2014):

What was measured:
[1] = system: dorsal root ganglion (DRG) neurons; assay: DRG axonal outgrowth and turning under slit-2 gradient after 5-FU treatment; type: cell-based, mice
Procedure: (§1) Primary hippocampal neurons and dorsal root ganglion (DRG) neurons cultured in the devices were obtained from embryonic day 14.5-16.5 mice as per protocols described in detail elsewhere (R. Li, Methods. Cell. Biol., 1998, 57, 167; W. E. Thomas, Life. Sci., 1986, 38, 297; A. V. Kwiatkowski, et al., Neuron, 2007, 56, 441). Cells from micro-dissected cortices were dissociated and resuspended in serum-free media at a final concentration of 10 million cells/mL. The neurons were seeded into the devices (n=10 devices per test condition) immediately after dissociation and cultured for 1-2 days, with serum-free media replaced in all the channels twice a day, before any guidance cue was introduced. All cell cultures were maintained in a humidified incubator at 5% CO2 and 37° C. For netrin-1 studies (FIGS. 11A-11C), hippocampal neurons were transfected using amaxa nucleofection, with a pmax-gfp plasmid cotransfected with a plasmid expressing DCC (deleted in colorectal cancer) receptor (M. J. Galko and M. Tessier-Lavigne, Science, 2000, 289, 1365).
(§2) Netrin-1 added in the channel was obtained from multiple sources: lab-isolated (T. Serafini, et al., Cell, 1994, 78, 409) netrin-1 (0.1-10 μg/mL), and netrin-1 released from cDNA transfected stable fibroblast cell line (K. Löw, et al., J. Neurosci., 2008, 28, 1099). […] Brain pulp was prepared in the lab from fresh whole mouse brain tissues. Briefly, the brain tissue was homogenized with a rotor stator in a hypotonic solution supplemented with protease inhibitors (protease inhibitor cocktail; Roche, USA), filtered, total protein content measured using a Bradford protein assay, and diluted to […] concentration. […]
(§3) Phase-contrast, fluorescence and confocal microscopy were used to characterize axonal distribution and quantify axonal turning in 3D collagen gels within the devices. […] The last 100 μm segment along the length of each axon leading to the growth cone was traced with NeuronJ (E. Meijering, et al., Cytometry. Part. A, 2004, 58, 167), and the angle this segment makes with the horizontal line (0°) was measured. […]

[2] = system: Human Lung Cancer Cell Line A549 aggregates; assay: A549 cancer aggregate break-up/migration in collagen gel with HUVEC monolayer, high throughput microfluidic device; type: cell-based
Procedure: Red colure cells are from Human Lung Cancer Cell Line A549 were transfected with H2B protein (m-Cherry), and partially disassociated, yielding cell aggregates of random sizes, between 40 um and 70 um. This was aspirated through a 100 micrometer strainer, yielding a media with cell aggregates with radii under 100 micrometers. This was poured through a second 40-micrometer filter, yielding a media with A549 aggregates between 40 and 100 micrometers. The cells were then centrifuged at 800 rpm for 2 minutes, and the media aspirated.
Collagen gel was prepared by adding 9 microliters of 1 M NaOH to 20 microliters of Phosphate Buffered Solution (BD Bioscience), and then adding 46 microliters of ultrapure H2O. Finally, 125 microliters of Type I Rat Tail Collagen at 2.5 mg/mL (BD Biosciences) were added, and mixed thoroughly.
The A549 aggregates were then mixed with the collagen gel, yielding a mixture of aggregates within the gel. Ten microliters of the gel were then injected into the center channel of the device shown in FIGS. 1 and 2, yielding 36 distinct gel-fluid interfaces within the device.
Human Umbilical Vein Endothelial Cells were transfected by GFP protein label disassociated, and flowed into the first media channel. Media without cells was added to the second channel. Adding a small bubble of media on each port of the first media channel yielded a hydrostatic pressure gradient, pushing cells to the gel-media interfaces. The pressure gradient was maintained for one hour, before the bubbles were removed. The device was cultured, and imaged at 0, 12, 36, 60, 84, and 108 hours. The endothelial cells were seen to create an endothelial monolayer along the bottom of the media channel, as well as on the gel-media interface.
In the control group, no drugs were added to the system. In the experimental group, the commercial cancer anti-metastatic drug Iressa (AstraZeneca), an EGFR-TK enzyme blocker, was added to the endothelial cell medium in doses of 100 nM, 500 nM, 1000 nM, 1500 nM, and 2000 nM. […]

hippocampal neurons = assay: Hippocampal axonal turning under guidance cue gradient in 3D collagen gel, spider microfluidic device; type: cell-based, mice
Procedure: as §1
Netrin-1 added in the channel was obtained from multiple sources: lab-isolated (T. Serafini, et al., Cell, 1994, 78, 409) netrin-1 (0.1-10 μg/mL), and netrin-1 released from cDNA transfected stable fibroblast cell line (K. Löw, et al., J. Neurosci., 2008, 28, 1099). […] Brain pulp was prepared in the lab from fresh whole mouse brain tissues. Briefly, the brain tissue was homogenized with a rotor stator in a hypotonic solution supplemented with protease inhibitors (protease inhibitor cocktail; Roche, USA), filtered, total protein content measured using a Bradford protein assay, and diluted to […] concentration. The chemorepellant used was Slit-2 (62.5 or 250 ng/mL; R&D Systems, Minneapolis, Minn.)). For chemosensing studies, the medium was removed from all the ports after 24-48 h of cell seeding, and 350 μL medium containing known concentration of guidance cue was introduced in the chemoattractant channel, and 350 μL serum-free media in each of the remaining two channels. For the experiments with netrin-1 being released from fibroblasts, transfected fibroblasts (1×10^5 cells) were seeded in the chemoattractant channel (source), and normal fibroblasts (non-transfected, 1×10^5 cells) were seeded in the left channel (sink). […] Netrin-1 released from the transfected fibroblasts diffuses across the collagen-1 gel and creates a gradient. The medium was changed at regular intervals to maintain chemogradient at all times. The control devices which received no guidance cues were cultured in the same procedure as with test cases.
as §3, with “devices. Florescent and phase contrast images were acquired with a Nikon TE300 microscope equipped with a Hamamatsu camera and Openlab image acquisition software. Axonal and nuclei staining were performed after fixation with 4% PFA (30 min).” for “devices.”

[3] = system: dorsal root ganglion (DRG) neurons; assay: DRG neuron migration into 3D collagen scaffold under slit-2 gradient; type: cell-based, mice; settings: slit-2 250 ng/mL
Procedure: as §1, §2, §3

[4] = slit-2 250 ng/mL in the right channel, n=64 axons

O=c1[nH]cc(F)c(=O)[nH]1 [5-FU, 5-fluorourasil, reference compound]
DRG cell migration into the scaffold ([1]; 5-FU 10^−5 M seeded with DRG explants on day 0, 24 h culture): no cell migration into the scaffold was observed

COc1cc2ncnc(Nc3ccc(F)c(Cl)c3)c2cc1OCCCN1CCOCC1 [Iressa]
behaviour of A549 cancer aggregates ([2]; 100 nM and 500 nM drug concentrations): cancer aggregates were seen to break up
behaviour of A549 cancer aggregates ([2]; 1000 nM, 1500 nM and 2000 nM drug concentrations): the cancer aggregates stayed intact
minimum effective dose ([2]; drug in endothelial cell medium, keeps A549 aggregates intact): 1000 nM

B1: slit-2: chemorepellant guidance cue Slit-2 (R&D Systems) (protein, UniProt O94813 31-1529, looked up)
Slit homolog 2 protein: QCSCSGSTVDCHGLALRSVPRNIPRNTERLDLNGNNITRITKTDFAGLRHLRVLQLMENKISTIERGAFQDLKELERLRLNRNHLQLFPELLFLGTAKLYRLDLSENQIQAIPRKAFRGAVDIKNLQLDYNQISCIEDGAFRALRDLEVLTLNNNNITRLSVASFNHMPKLRTFRLHSNNLYCDCHLAWLSDWLRQRPRVGLYTQCMGPSHLRGHNVAEVQKREFVCSGHQSFMAPSCSVLHCPAACTCSNNIVDCRGKGLTEIPTNLPETITEIRLEQNTIKVIPPGAFSPYKKLRRIDLSNNQISELAPDAFQGLRSLNSLVLYGNKITELPKSLFEGLFSLQLLLLNANKINCLRVDAFQDLHNLNLLSLYDNKLQTIAKGTFSPLRAIQTMHLAQNPFICDCHLKWLADYLHTNPIETSGARCTSPRRLANKRIGQIKSKKFRCSAKEQYFIPGTEDYRSKLSGDCFADLACPEKCRCEGTTVDCSNQKLNKIPEHIPQYTAELRLNNNEFTVLEATGIFKKLPQLRKINFSNNKITDIEEGAFEGASGVNEILLTSNRLENVQHKMFKGLESLKTLMLRSNRITCVGNDSFIGLSSVRLLSLYDNQITTVAPGAFDTLHSLSTLNLLANPFNCNCYLAWLGEWLRKKRIVTGNPRCQKPYFLKEIPIQDVAIQDFTCDDGNDDNSCSPLSRCPTECTCLDTVVRCSNKGLKVLPKGIPRDVTELYLDGNQFTLVPKELSNYKHLTLIDLSNNRISTLSNQSFSNMTQLLTLILSYNRLRCIPPRTFDGLKSLRLLSLHGNDISVVPEGAFNDLSALSHLAIGANPLYCDCNMQWLSDWVKSEYKEPGIARCAGPGEMADKLLLTTPSKKFTCQGPVDVNILAKCNPCLSNPCKNDGTCNSDPVDFYRCTCPYGFKGQDCDVPIHACISNPCKHGGTCHLKEGEEDGFWCICADGFEGENCEVNVDDCEDNDCENNSTCVDGINNYTCLCPPEYTGELCEEKLDFCAQDLNPCQHDSKCILTPKGFKCDCTPGYVGEHCDIDFDDCQDNKCKNGAHCTDAVNGYTCICPEGYSGLFCEFSPPMVLPRTSPCDNFDCQNGAQCIVRINEPICQCLPGYQGEKCEKLVSVNFINKESYLQIPSAKVRPQTNITLQIATDEDSGILLYKGDKDHIAVELYRGRVRASYDTGSHPASAIYSVETINDGNFHIVELLALDQSLSLSVDGGNPKIITNLSKQSTLNFDSPLYVGGMPGKSNVASLRQAPGQNGTSFHGCIRNLYINSELQDFQKVPMQTGILPGCEPCHKKVCAHGTCQPSSQAGFTCECQEGWMGPLCDQRTNDPCLGNKCVHGTCLPINAFSYSCKCLEGHGGVLCDEEEDLFNPCQAIKCKHGKCRLSGLGQPYCECSSGYTGDSCDREISCRGERIRDYYQKQQGYAACQTTKKVSRLECRGGCAGGQCCGPLRSKRRKYSFECTDGSSFVDEVEKVVKCGCTRCVS
percentage of axons that turned away from the high concentration, 250 ng/mL versus 62.5 ng/mL (hippocampal neurons; increasing slit-2 from 62.5 ng/mL to 250 ng/mL, p<0.001): tripled
chemorepellent effect on hippocampal axonal turning (hippocampal neurons; slit-2 62.5 ng/mL, n=51 axons): did not exhibit similar strong repellent characteristics
percentage of axons in Q1 (towards guidance cue) (hippocampal neurons; [4]): 18.2±4.5%
percentage of axons in Q3 (away from guidance cue) (hippocampal neurons; [4]): 42.6±9.1%
enhancement of axonal turning down the gradient relative to controls which received no cues (hippocampal neurons; slit-2 250 ng/mL, p<0.001): 3.4 fold
percentage of DRG axons repelled ([1]; slit-2 250 ng/mL in right hand channel after 24 h 5-FU, p<0.03 vs. controls): 70±14.2%
inhibition of DRG neuron axonal turning into Q1 relative to control cultures ([1]; slit-2 250 ng/mL, p<0.05 vs. controls): 56%
DRG neuron migration down the gradient, percentage in Q3 [3]: 74±12.5%
increase in DRG neuron migration down the gradient relative to controls ([3]; p<0.001 vs. controls): 5 fold
increase in DRG neuron migration down the gradient relative to 62.5 ng/mL slit-2 gradient ([3]; p<0.01): 2.7 fold
